From patent publication US9540424B2, “Serum albumin binding molecules” (BRISTOL-MYERS SQUIBB COMPANY, priority 2010, dated 2017) come the findings set out here.

In one data set the test system is diabetic ob/ob mice. Description: HbA1c in diabetic ob/ob mice after 14 days of SABA1-FGF21v1 premixed with HSA. Format: in vivo, mouse. Conditions: for plasma levels: […] hours after the last dose. As for the experimental part: HbA1c was measured in plasma samples 24 hours after the last dose (see FIG. 19).
SABA1-FGF21v1 plasma levels at the 0.01, 0.1 and 1 mg/kg doses were 3.85, 2.28 and 28.73 ng/ml respectively, 24 hours after the last dose.

The target in a further data set is HSA (Homo sapiens, UniProt P02768). Briefly: SPR (Biacore T100) kinetics of FGF21-SABA1 fusions: HSA. Format: binding. Conditions: flow rate 30 μl/min. As to the method: The binding competency and thermodynamic characterization of FGF21-SABA fusion variants to human serum albumin were performed using Isothermal Titration calorimetry on a Microcal VP-ITC instrument (Microcal Inc. Amherst Mass., USA). […] The detailed experimental conditions are described below.
For the calorimetry assay, the FGF21-SABA variant SABA1-FGF21v1 (SEQ ID NO: 132) was used. […] For the SPR studies, SABA1-FGF21v1 and SABA1-FGF21v3 (SEQ ID NO: 134) were examined.
Serum albumins were dissolved in PBS buffer (10 mM sodium phosphate, 130 mM sodium chloride, pH 7.1) to a concentration of 10 mg/ml, and subsequently diluted to 8-10 μg/ml in 10 mM sodium acetate pH 5.0 for immobilization. Serum albumins were immobilized on a Series S CMS sensor chip using standard ethyl(dimethylaminopropyl) carbodiimide (EDC)/N-hydroxysuccinimide (NHS) chemistry in HBS-EP+ running buffer at 25° C., following general manufacturer guidelines. Flow cell 1 was activated with EDC/NHS and blocked with ethanolamine. […] Kinetic experiments were performed in PBS buffer containing 0.05% tween-20 (running buffer) at either 25° C. or 37° C. […] These samples were injected across flow cells 1-4 for 300 s, with a 420 s dissociation time, at flow rates of 30 μl/min or 60 μl/min to check for mass transfer limitation. All surfaces were regenerated with 2 pulses of 10 mM glycine pH 2.0 at 30 μl/min for 30 s. Raw sensograms were “double-referenced” by subtracting flow cell 1 data from flow cell 2, 3 or 4 data, and then subtracting a separate buffer cycle from each sensogram. The double-referenced sensogram data was fitted to a 1:1 Langmuir model using Biacore T100 Evaluation software version 2.0.2 to determine the association rate constant (ka), the dissociation rate constant (kd), and the equilibrium dissociation constant (KD).
For orientation: SPR reads the build-up and loss of mass on a sensor chip optically.

B1: SABA1-FGF21v1: SABA1-FGF21 fusion, SEQ ID NO: 132; 293 aa; DNA SEQ ID NO: 184 (protein)
chain: MGVSDVPRDLEVVAATPTSLLISWHSYYEQNSYYRITYGETGGNSPVQEFTVPYSQTTATISGLKPGVDYTITVYAVYGSKYYYPISINYRTEIEKPSQGSGSGSGSGSGSGSPIPDSSPLLQFGGQVRQRYLYTDDAQQTEAHLEIREDGTVGGAADQSPESLLQLKALKPGVIQILGVKTSRFLCQRPDGALYGSLHFDPEACSFRELLLEDGYNVYQSEAHGLPLHLPGNKSPHRDPAPRGPARFLPLPGLPPALPEPPGILAPQPPDVGSSDPLSMVGPSQGRSPSYAS
As for B1, the plasma levels with diabetic ob/ob mice (0.01 mg/kg dose) was 3.85 ng/mL; in the data set with diabetic ob/ob mice (0.1 mg/kg dose), 2.28 ng/mL; in the data set on diabetic ob/ob mice (1 mg/kg dose) it was 28.73 ng/mL. In addition, the “decrease in HbA1c compared to baseline” value in the data set on diabetic ob/ob mice (0.01 mg/kg with HSA 6 mg/kg, s.c. q.d. 14 days) is “no decrease”; in the data set on diabetic ob/ob mice (0.1 mg/kg with HSA 6 mg/kg, s.c. q.d. 14 days, not statistically significant), 0.39%. Moreover, the “decrease in HbA1c with respect to baseline” value in the data set on diabetic ob/ob mice (1 mg/kg with HSA 6 mg/kg, s.c. q.d. 14 days) was 0.9%. Besides, in the data set with diabetic ob/ob mice (1 mg/kg with HSA 6 mg/kg, s.c. q.d. 14 days, statistically significant), the “vehicle subtracted decrease in HbA1c” value is 0.94%. Also, the “ka” value with HSA (25° C.) is 3380 M⁻¹ s⁻¹; in the data set with HSA (37° C.) it was 5960 M⁻¹ s⁻¹. Moreover, the “kd” value with HSA (25° C.) amounted to 0.000333 s⁻¹; in the data set with HSA (37° C.), 0.00111 s⁻¹.
